Assay results published in article PMC9352680, “A comprehensive thermodynamic model for RNA binding by the Saccharomyces cerevisiae Pumilio protein PUF4”.
Changes are numbered by the printed parent chain. Names may count otherwise.

T1: PUF4 RNA-binding domain (Saccharomyces cerevisiae, UniProt P25339 537-888)
T1 sequence: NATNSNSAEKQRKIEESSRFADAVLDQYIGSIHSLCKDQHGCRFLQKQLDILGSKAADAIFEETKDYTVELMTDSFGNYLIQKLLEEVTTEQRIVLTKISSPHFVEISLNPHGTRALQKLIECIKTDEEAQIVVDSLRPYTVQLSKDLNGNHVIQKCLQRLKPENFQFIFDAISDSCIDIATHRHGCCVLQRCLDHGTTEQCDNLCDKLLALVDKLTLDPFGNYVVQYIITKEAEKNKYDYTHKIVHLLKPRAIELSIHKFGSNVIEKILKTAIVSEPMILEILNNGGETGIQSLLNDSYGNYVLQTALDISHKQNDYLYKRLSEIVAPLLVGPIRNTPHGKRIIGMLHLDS

B1: Id_ii_S2_P5E.2_K5.1_C5.2_[C-2T]_[T-1G]_H5.1_A5.1_F5.1_T5.2_[A12T] (ssRNA)
RNA: UUUGAUUAAUAUGAUAUCGUUCUUUCUUGUGUAUUAUUAUUUUCUUUCUCGAUAUCAUAUUAAUCUUU
B2: Id_ii_S2_P5E.2_K5.1_C5.2_[C-2A]_[T-1G]_H5.1_A5.1_F5.1_T5.2_[T11A]_[A12T] (ssRNA)
RNA: B1 RNA with U28A, U40A
B3: Id_ii_S2_P5E.2_K5.1_C5.2_[T-1G]_H5.1_A5.1_F5.1_T5.2_[T11A]_[A12C] (ssRNA)
RNA: B1 RNA with U28C, U40A, U41C
B4: Id_ii_S2_P5E.2_K5.1_C5.2_[C-2A]_H5.1_A5.1_F5.1_T5.2_[T11A]_[A12T] (ssRNA)
RNA: B1 RNA with U28A, G29U, U40A
B5: Id_ii_S2_P5E.2_K5.1_C5.2_[C-2T]_[T-1A]_H5.1_A5.1_F5.1_T5.2_[A12T] (ssRNA)
RNA: B1 RNA with G29A
B6: Id_ii_S2_P5E.2_K5.1_C5.2_[T-1C]_H5.1_A5.1_F5.1_T5.2_[T11A]_[A12C] (ssRNA)
RNA: B1 RNA with U28C, G29C, U40A, U41C
B7: Id_ii_S2_P5E.2_K5.1_C5.2_[C-2A]_[T-1C]_H5.1_A5.1_F5.1_T5.2_[A12G] (ssRNA)
RNA: B1 RNA with U28A, G29C, U41G
B8: Id_ii_S2_P5E.2_K5.1_C5.2_[C-2A]_[T-1C]_H5.1_A5.1_F5.1_T5.2_[A12T] (ssRNA)
RNA: B1 RNA with U28A, G29C
B9: Id_ii_S2_P5E.2_K5.1_C5.2_[T-1C]_H5.1_A5.1_F5.1_T5.2_[T11A]_[A12G] (ssRNA)
RNA: B1 RNA with U28C, G29C, U40A, U41G
B10: Id_ii_S2_P5E.2_K5.1_C5.2_[C-2A]_[T-1C]_H5.1_A5.1_F5.1_T5.2_[T11A]_[A12C] (ssRNA)
RNA: B1 RNA with U28A, G29C, U40A, U41C
B11: Id_ii_S2_P5E.2_K5.1_C5.2_[C-2T]_[T-1C]_H5.1_A5.1_F5.1_T5.2_[T11A]_[A12C] (ssRNA)
RNA: B1 RNA with G29C, U40A, U41C
B12: Id_ii_S2_P5E.2_K5.1_C5.2_[C-2T]_[T-1A]_H5.1_A5.1_F5.1_T5.2_[T11A] (ssRNA)
RNA: B1 RNA with G29A, U40A, U41A
B13: Id_ii_S2_P5E.2_K5.1_C5.2_[C-2A]_[T-1A]_H5.1_A5.1_F5.1_T5.2_[A12C] (ssRNA)
RNA: B1 RNA with U28A, G29A, U41C
B14: Id_ii_S2_P5E.2_K5.1_C5.2_[C-2T]_[T-1C]_H5.1_A5.1_F5.1_T5.2_[T11A]_[A12G] (ssRNA)
RNA: B1 RNA with G29C, U40A, U41G
B15: Id_ii_S2_P5E.2_K5.1_C5.2_[C-2A]_H5.1_A5.1_F5.1_T5.2_[T11A]_[A12C] (ssRNA)
RNA: B1 RNA with U28A, G29U, U40A, U41C
B16: Id_ii_S2_P5E.2_K5.1_C5.2_[C-2T]_H5.1_A5.1_F5.1_T5.2_[A12C] (ssRNA)
RNA: B1 RNA with G29U, U41C
B17: Id_ii_S2_P5E.2_K5.1_C5.2_[C-2T]_[T-1A]_H5.1_A5.1_F5.1_T5.2_[T11G]_[A12T] (ssRNA)
RNA: B1 RNA with G29A, U40G
B18: Id_ii_S2_P5E.2_K5.1_C5.2_[C-2T]_[T-1C]_H5.1_A5.1_F5.1_T5.2_[A12C] (ssRNA)
RNA: B1 RNA with G29C, U41C
B19: Id_ii_S2_P5E.2_K5.1_C5.2_[C-2T]_[T-1C]_H5.1_A5.1_F5.1_T5.2_[T11A] (ssRNA)
RNA: B1 RNA with G29C, U40A, U41A
B20: Id_ii_S2_P5E.2_K5.1_C5.2_[T-1G]_H5.1_A5.1_F5.1_T5.2_[T11G]_[A12T] (ssRNA)
RNA: B1 RNA with U28C, U40G
B21: Id_ii_S2_P5E.2_K5.1_C5.2_[C-2A]_[T-1C]_H5.1_A5.1_F5.1_T5.2_[A12C] (ssRNA)
RNA: B1 RNA with U28A, G29C, U41C
B22: Id_ii_S2_P5E.2_K5.1_C5.2_[C-2A]_H5.1_A5.1_F5.1_T5.2_[A12T] (ssRNA)
RNA: B1 RNA with U28A, G29U
B23: Id_ii_S2_P5E.2_K5.1_C5.2_[C-2T]_H5.1_A5.1_F5.1_T5.2_[T11G]_[A12T] (ssRNA)
RNA: B1 RNA with G29U, U40G
B24: Id_ii_S2_P5E.2_K5.1_C5.2_[T-1G]_H5.1_A5.1_F5.1_T5.2_[A12T] (ssRNA)
RNA: B1 RNA with U28C
B25: Id_ii_S2_P5E.2_K5.1_C5.2_[T-1G]_H5.1_A5.1_F5.1_T5.2_[A12C] (ssRNA)
RNA: B1 RNA with U28C, U41C
B26: Id_ii_S2_P5E.2_K5.1_C5.2_[C-2T]_H5.1_A5.1_F5.1_T5.2_[T11A] (ssRNA)
RNA: B1 RNA with G29U, U40A, U41A
B27: Id_ii_S2_P5E.2_K5.1_C5.2_[T-1G]_H5.1_A5.1_F5.1_T5.2_[T11G]_[A12C] (ssRNA)
RNA: B1 RNA with U28C, U40G, U41C
B28: Id_ii_S2_P5E.2_K5.1_C5.2_[T-1G]_H5.1_A5.1_F5.1_T5.2_[T11A] (ssRNA)
RNA: B1 RNA with U28C, U40A, U41A
B29: Id_ii_S2_P5E.2_K5.1_C5.2_[C-2T]_[T-1C]_H5.1_A5.1_F5.1_T5.2_[A12G] (ssRNA)
RNA: B1 RNA with G29C, U41G
B30: Id_ii_S2_P5E.2_K5.1_C5.2_[C-2T]_[T-1A]_H5.1_A5.1_F5.1_T5.2_[T11A]_[A12C] (ssRNA)
RNA: B1 RNA with G29A, U40A, U41C
B31: Id_ii_S2_P5E.2_K5.1_C5.2_[C-2A]_H5.1_A5.1_F5.1_T5.2_[A12G] (ssRNA)
RNA: B1 RNA with U28A, G29U, U41G
B32: Id_ii_S2_P5E.2_K5.1_C5.2_[T-1G]_H5.1_A5.1_F5.1_T5.2_[T11A]_[A12T] (ssRNA)
RNA: B1 RNA with U28C, U40A
B33: Id_ii_S2_P5E.2_K5.1_C5.2_[C-2T]_[T-1C]_H5.1_A5.1_F5.1_T5.2_[A12T] (ssRNA)
RNA: B1 RNA with G29C
B34: Id_ii_S2_P5E.2_K5.1_C5.2_[C-2T]_H5.1_A5.1_F5.1_T5.2_[A12T] (ssRNA)
RNA: B1 RNA with G29U
B35: Id_ii_S2_P5E.2_K5.1_C5.2_[C-2A]_H5.1_A5.1_F5.1_T5.2_[A12C] (ssRNA)
RNA: B1 RNA with U28A, G29U, U41C
B36: Id_ii_S2_P5E.2_K5.1_C5.2_[C-2T]_[T-1A]_H5.1_A5.1_F5.1_T5.2_[A12C] (ssRNA)
RNA: B1 RNA with G29A, U41C
B37: Id_ii_S2_P5E.2_K5.1_C5.2_[C-2A]_[T-1A]_H5.1_A5.1_F5.1_T5.2_[T11A]_[A12C] (ssRNA)
RNA: B1 RNA with U28A, G29A, U40A, U41C
B38: Id_ii_S2_P5E.2_K5.1_C5.2_[C-2A]_[T-1C]_H5.1_A5.1_F5.1_T5.2_[T11A]_[A12T] (ssRNA)
RNA: B1 RNA with U28A, G29C, U40A
B39: Id_ii_S2_P5E.2_K5.1_C5.2_[C-2T]_H5.1_A5.1_F5.1_T5.2_[T11A]_[A12T] (ssRNA)
RNA: B1 RNA with G29U, U40A
B40: Id_ii_S2_P5E.2_K5.1_C5.2_[C-2A]_[T-1A]_H5.1_A5.1_F5.1_T5.2_[T11A]_[A12T] (ssRNA)
RNA: B1 RNA with U28A, G29A, U40A

Biological target: T1, PUF4 RNA-binding domain
Experiment: Mg; RNA-MaP; 20 mM Na-HEPES pH 7.4, 30 mM KOAc, 0.75 mM MgCl2, 0.1% Tween-20, 5% glycerol, 0.1 mg/mL BSA, 2 mM DTT; 25 C; 0.0125-409.6 nM protein
Settings: tags: N-His6-TEV cleaved; C-SNAP kept, Cy3B-labelled; label: tethered on chip by stalled RNA polymerase

| Binder | Kd [nM] |
| --- | --- |
| UCUCUUUGUAUGACUAUCUCUU (ssRNA) [Ib_S1_P5E.1_K5.1_C5.1_H5.1_A5.1_[T6G]_F5.1_[T8C]_T5.1] | 31.2 |
| UCUCUUUGUAUAAGUAUCUCUU (ssRNA) [Ic_S1_P5E.1_K5.1_C5.1_H5.1_A5.1_[T6A]_F5.1_[T8G]_T5.1] | 54 |
| UCUCUUUGUAUAACUAUCUCUU (ssRNA) [Ic_S1_P5E.1_K5.1_C5.1_H5.1_A5.1_[T6A]_F5.1_[T8C]_T5.1] | 8.58 |
| UCUCUUUGUAUCACUAUCUCUU (ssRNA) [Ib_S1_P5E.1_K5.1_C5.1_H5.1_A5.1_[T6C]_F5.1_[T8C]_T5.1] | 18 |
| UCUCUUUGUGUUAUUAUCUCUU (ssRNA) [Ia_S1_P5E.1_K5.1_C5.1_H5.1_[A4G]_A5.1_F5.1_T5.1] | 30.7 |
| B1 | 1.42 |
| B2 | 7.45 |
| B3 | 6.1 |
| B4 | 5.79 |
| B5 | 2.85 |
| B6 | 3.51 |
| B7 | 31.6 |
| B8 | 2.49 |
| B9 | 9.77 |
| B10 | 5.62 |
| B11 | 4.08 |
| B12 | 12.2 |
| B13 | 9.68 |
| B14 | 51 |
| B15 | 6.07 |
| B16 | 1.86 |
| B17 | 4.78 |
| B18 | 2.98 |

| Binder | Kd [nM] |
| --- | --- |
| B19 | 4.24 |
| B20 | 1.86 |
| B21 | 2.94 |
| B22 | 2.99 |
| B23 | 3.67 |
| B24 | 1.54 |
| B25 | 2.68 |
| B26 | 5.96 |
| B27 | 2.28 |
| B28 | 3.97 |
| B29 | 3.04 |
| B30 | 8.24 |
| B31 | 5.06 |
| B32 | 2.03 |
| B33 | 1.5 |
| B34 | 1.44 |
| B35 | 3.2 |
| B36 | 4.16 |
| B37 | 19 |
| B38 | 3.61 |
| B39 | 3.17 |
| B40 | 20.4 |
